Changes are numbered by the printed parent chain.
T1: LZTR1-FLAG (human, UniProt Q8N653 1-840)
T1 construct: Expressed in HEK 293T, HeLa or U87 cells; used as cell lysate; also called LZTR1 wild type-FLAG; LZTR1 WT; not shown: FLAG tag at the C-terminus
T1 sequence (looked up): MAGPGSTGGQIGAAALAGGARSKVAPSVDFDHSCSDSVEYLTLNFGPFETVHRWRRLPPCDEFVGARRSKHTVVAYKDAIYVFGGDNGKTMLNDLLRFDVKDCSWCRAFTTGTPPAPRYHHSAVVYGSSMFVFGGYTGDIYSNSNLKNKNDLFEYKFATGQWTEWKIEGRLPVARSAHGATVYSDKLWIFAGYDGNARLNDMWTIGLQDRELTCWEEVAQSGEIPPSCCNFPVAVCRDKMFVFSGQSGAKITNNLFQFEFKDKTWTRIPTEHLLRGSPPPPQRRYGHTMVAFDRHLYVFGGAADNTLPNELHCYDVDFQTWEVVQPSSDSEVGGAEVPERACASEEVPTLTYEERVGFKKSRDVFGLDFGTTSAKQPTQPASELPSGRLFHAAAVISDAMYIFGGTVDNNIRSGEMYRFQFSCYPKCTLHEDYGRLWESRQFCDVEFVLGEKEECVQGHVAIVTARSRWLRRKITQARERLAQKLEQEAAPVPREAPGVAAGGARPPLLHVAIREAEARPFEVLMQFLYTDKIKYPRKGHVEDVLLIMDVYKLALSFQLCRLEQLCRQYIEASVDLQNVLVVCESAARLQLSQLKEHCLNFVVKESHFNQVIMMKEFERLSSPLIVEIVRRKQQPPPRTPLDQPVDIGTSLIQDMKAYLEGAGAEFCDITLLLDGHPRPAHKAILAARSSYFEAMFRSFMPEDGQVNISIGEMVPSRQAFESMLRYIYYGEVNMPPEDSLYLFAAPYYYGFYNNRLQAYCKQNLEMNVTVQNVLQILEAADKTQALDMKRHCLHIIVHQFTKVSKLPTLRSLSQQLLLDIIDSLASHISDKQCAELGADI

T2: LZTR1 R810W-FLAG (human, UniProt Q8N653 1-840)
T2 construct: Stably expressed in U87 cells by lentivirus; also called LZTR1-FLAG-R810W; LZTR1 RW; not shown: FLAG tag
T2 sequence (looked up): T1 sequence (looked up) with R810W

B1: APPL1 (other, human, UniProt Q9UKG1 1-709, looked up)
chain: MPGIDKLPIEETLEDSPQTRSLLGVFEEDATAISNYMNQLYQAMHRIYDAQNELSAATHLTSKLLKEYEKQRFPLGGDDEVMSSTLQQFSKVIDELSSCHAVLSTQLADAMMFPITQFKERDLKEILTLKEVFQIASNDHDAAINRYSRLSKKRENDKVKYEVTEDVYTSRKKQHQTMMHYFCALNTLQYKKKIALLEPLLGYMQAQISFFKMGSENLNEQLEEFLANIGTSVQNVRREMDSDIETMQQTIEDLEVASDPLYVPDPDPTKFPVNRNLTRKAGYLNARNKTGLVSSTWDRQFYFTQGGNLMSQARGDVAGGLAMDIDNCSVMAVDCEDRRYCFQITSFDGKKSSILQAESKKDHEEWICTINNISKQIYLSENPEETAARVNQSALEAVTPSPSFQQRHESLRPAAGQSRPPTARTSSSGSLGSESTNLAALSLDSLVAPDTPIQFDIISPVCEDQPGQAKAFGQGGRRTNPFGESGGSTKSETEDSILHQLFIVRFLGSMEVKSDDHPDVVYETMRQILAARAIHNIFRMTESHLLVTCDCLKLIDPQTQVTRLTFPLPCVVLYATHQENKRLFGFVLRTSSGRSESNLSSVCYIFESNNEGEKICDSVGLAKQIALHAELDRRASEKQKEIERVKEKQQKELNKQKQIEKDLEEQSRLIAASSRPNQASSEGQFVVLSSSQSEESDLGEGGKKRESEA
B2: ATF6 (other, human, UniProt P18850 1-670, looked up)
chain: MGEPAGVAGTMESPFSPGLFHRLDEDWDSALFAELGYFTDTDELQLEAANETYENNFDNLDFDLDLMPWESDIWDINNQICTVKDIKAEPQPLSPASSSYSVSSPRSVDSYSSTQHVPEELDLSSSSQMSPLSLYGENSNSLSSAEPLKEDKPVTGPRNKTENGLTPKKKIQVNSKPSIQPKPLLLPAAPKTQTNSSVPAKTIIIQTVPTLMPLAKQQPIISLQPAPTKGQTVLLSQPTVVQLQAPGVLPSAQPVLAVAGGVTQLPNHVVNVVPAPSANSPVNGKLSVTKPVLQSTMRNVGSDIAVLRRQQRMIKNRESACQSRKKKKEYMLGLEARLKAALSENEQLKKENGTLKRQLDEVVSENQRLKVPSPKRRVVCVMIVLAFIILNYGPMSMLEQDSRRMNPSVSPANQRRHLLGFSAKEAQDTSDGIIQKNSYRYDHSVSNDKALMVLTEEPLLYIPPPPCQPLINTTESLRLNHELRGWVHRHEVERTKSRRMTNNQQKTRILQGALEQGSNSQLMAVQYTETTSSISRNSGSELQVYYASPRSYQDFFEAIRRRGDTFYVVSFRRDHLLLPATTHNKTTRPKMSIVLPAININENVINGQDYEVMMQIDCQVMDTRILHIKSSSVPPYLRDQQRNQTNTFFGSPPAATEATHVVSTIPESLQ
B3: ATF6B (other, human, UniProt Q99941 2-703, looked up)
chain: AELMLLSEIADPTRFFTDNLLSPEDWGLQNSTLYSGLDEVAEEQTQLFRCPEQDVPFDGSSLDVGMDVSPSEPPWELLPIFPDLQVKSEPSSPCSSSSLSSESSRLSTEPSSEALGVGEVLHVKTESLAPPLCLLGDDPTSSFETVQINVIPTSDDSSDVQTKIEPVSPCSSVNSEASLLSADSSSQAFIGEEVLEVKTESLSPSGCLLWDVPAPSLGAVQISMGPSLDGSSGKALPTRKPPLQPKPVVLTTVPMPSRAVPPSTTVLLQSLVQPPPVSPVVLIQGAIRVQPEGPAPSLPRPERKSIVPAPMPGNSCPPEVDAKLLKRQQRMIKNRESACQSRRKKKEYLQGLEARLQAVLADNQQLRRENAALRRRLEALLAENSELKLGSGNRKVVCIMVFLLFIAFNFGPVSISEPPSAPISPRMNKGEPQPRRHLLGFSEQEPVQGVEPLQGSSQGPKEPQPSPTDQPSFSNLTAFPGGAKELLLRDLDQLFLSSDCRHFNRTESLRLADELSGWVQRHQRGRRKIPQRAQERQKSQPRKKSPPVKAVPIQPPGPPERDSVGQLQLYRHPDRSQPAFLDAIDRREDTFYVVSFRRDHLLLPAISHNKTSRPKMSLVMPAMAPNETLSGRGAPGDYEEMMQIECEVMDTRVIHIKTSTVPPSLRKQPSPTPGNATGGPLPVSAASQAHQASHQPLYLNHP
B4: ATG13 (other, human, UniProt O75143 1-517, looked up)
chain: METDLNSQDRKDLDKFIKFFALKTVQVIVQARLGEKICTRSSSSPTGSDWFNLAIKDIPEVTHEAKKALAGQLPAVGRSMCVEISLKTSEGDSMELEIWCLEMNEKCDKEIKVSYTVYNRLSLLLKSLLAITRVTPAYRLSRKQGHEYVILYRIYFGEVQLSGLGEGFQTVRVGTVGTPVGTITLSCAYRINLAFMSTRQFERTPPIMGIIIDHFVDRPYPSSSPMHPCNYRTAGEDTGVIYPSVEDSQEVCTTSFSTSPPSQLSSSRLSYQPAALGVGSADLAYPVVFAAGLNATHPHQLMVPGKEGGVPLAPNQPVHGTQADQERLATCTPSDRTHCAATPSSSEDTETVSNSSEGRASPHDVLETIFVRKVGAFVNKPINQVTLTSLDIPFAMFAPKNLELEDTDPMVNPPDSPETESPLQGSLHSDGSSGGSSGNTHDDFVMIDFKPAFSKDDILPMDLGTFYREFQNPPQLSSLSIDIGAQSMAEDLDSLPEKLAVHEKNVREFDAFVETLQ
B5: ARMCX2 (other, human, UniProt Q7L311 1-632, looked up)
chain: MSRVRDAGCVAAGIVIGAGAWYCVYKYTRGRDQTKKRMAKPKNRAVAGTGARARAGLRAGFTIDLGSGFSPPTPVRAEAEDRAQDEASALDTVGAEAVAPAASSAEAQSGAGSQAQEADGAGVGPKAESVVGAAMASAIAPPPGVTEALGAAEAPAMAGAPKVAEAPREAETSRAAVPPGTVVPTEAAAPTEVTEGPGVAAPTKVAEAPGVASPTEAAEAPVPATPTGAAAPTGAAESPGTSGSPRTAVVPGTSAAKKATPGAHTGAIPKATSATGAVPKGGGKGVTRSRNGGKGKGKKSKVEVDELGMGFRPGDGAAAAAAASANGGQAFLAEVPDSEEGESGWTDTESDSDSEPETQRRGRGRRPVAMQKRPFPYEIDEILGVRDLRKVLALLQKSDDPFIQQVALLTLSNNANYSCNQETIRKLGGLPIIANMINKTDPHIKEKALMAMNNLSENYENQGRLQVYMNKVMDDIMASNLNSAVQVVGLKFLTNMTITNDYQHLLVNSIANFFRLLSQGGGKIKVEILKILSNFAENPDMLKKLLSTQVPASFSSLYNSYVESEILINALTLFEIIYDNLRAEVFNYREFNKGSLFYLCTTSGVCVKKIRALANHHDLLVKVKVIKLVNKF

Each binder was assayed against T1, LZTR1-FLAG (assay: IP/MS, LZTR1 wild type-FLAG, U87).
Description: (§1) Lysates were immunoprecipitated with FLAG affinity matrix and eluted with FLAG peptide. […] Protein gel slices were excised and in-gel digestion performed as previously described (83), with minor modifications. Gel slices were washed with 1:1 A cetonitrile and 100 mM ammonium bicarbonate for 30 min then dehydrated with 100% acetonitrile for 10 min until shrunk. The excess acetonitrile was then removed and the slices dried in speed-vacuum at room temperature for 10 min. Gel slices were reduced with 5 mM DTT for 30 min at 56° C. in an air thermostat, cooled down to room temperature, and alkylated with 11 mM IAA for 30 min with no light. Gel slices were then washed with 100 mM of ammonium bicarbonate and 100% acetonitrile for 10 min each. Excess acetonitrile was removed and dried in a speed-vacuum for 10 min at room temperature and the gel slices were re-hydrated in a solution of 25 ng/μl trypsin in 50 mM ammonium bicarbonate for 30 min on ice and digested overnight at 37° C. in an air thermostat. Digested peptides were collected and further extracted from gel slices in extraction buffer (1:2 ratio by volume of 5% formic acid:acetonitrile) at high speed, shaking in an air thermostat. The supernatants from both extractions were combined and dried in a speed-vacuum. Peptides were dissolved in 3% acetonitrile/0.1% formic acid. Desalted peptides were injected in an EASY-Spray™ PepMap™ RSLC C18 50 cm×[…] column (Thermo Scientific) connected to an Orbitrap Fusion™ Tribrid™ (Thermo Scientific) as described in “Global ubiquitylation enrichment” section. The following modifications were used for protein identification and quantification: oxidation of methionine (M), acetylation of the protein N-terminus, and deamination for asparagine or glutamine (NQ). Results obtained from MaxQuant were assembled in Scaffold for data visualization.
B1: binds. B2: binds. B3: binds. B4: binds. B5: binds.

Each binder was assayed against T2, LZTR1 R810W-FLAG (assay: IP/MS, LZTR1 R810W-FLAG, U87).
Description: as §1
B1: binds. B2: binds. B3: binds. B4: binds. B5: binds.

Reference: patent US20250262210A1 (TRUSTEES OF COLUMBIA UNIVERSITY IN THE CITY OF NEW YORK, published 2025)
